± gives the standard deviation of the averaged measurements.
tested on: Saccharomyces cerevisiae; experiment: protein stability index of tFT-peptide fusion (C-terminal peptide) (PSI (0-1 scale)); higher = more stable (slower turnover); conditions: genetic background: wild type; temperature: 30 C
Experimental: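 Multiplexed protein stability (MPS) profiling in S. cerevisiae. Random 12-aa peptides (tFT-X12 library) are fused to the C-terminus of a sfGFP-mCherry tandem fluorescent timer, after mCherry and a GGGS linker. Cells are FACS-sorted into 8 mCherry/sfGFP bins and deep-sequenced. The protein stability index (PSI) is the read-weighted bin average, scaled from 0 (unstable) to 1 (stable). Only peptides with >10 reads are reported; cells were grown at 30 °C in SC-His with glucose.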
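Further: PSI is a weighted mean of sequencing reads over stability bins, variants kept only with over 10 reads, mCherry proximal and sfGFP distal, peptide attached via GGGS linker.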

Row | Sequence | protein stability index
1 | GGSWGVGGVFVR | 0.658 ± 0.03
2 | GGTGFMHSVDYG | 0.644 ± 0.0089
3 | GGTRCQYKNLFG | 0.683 ± 0.029
4 | GGTSCLLSTAGD | 0.653 ± 0.079
5 | GGVEWEQQGRKE | 0.706 ± 0.072
6 | GGVGGGVEPCFV | 0.66 ± 0.028
7 | GGVGGRGIGFPR | 0.684 ± 0.055
8 | GGVLGPEVCVGG | 0.693 ± 0.047
9 | GGVRGGAAEGAV | 0.751 ± 0.076
10 | GGVRGRRLLGGR | 0.7 ± 0.046
11 | GGVRGVRGRGVG | 0.639 ± 0.049
12 | GGVRSLLWAVVW | 0.583 ± 0.009
13 | GGVSVPSERFRS | 0.788 ± 0.044
14 | GGVWFSCSSAFS | 0.871 ± 0.075
15 | GGWDLIASVREF | 0.649 ± 0.017
16 | GGWGGRGQGWYR | 0.6673 ± 0.0055
17 | GGWGRRRLDGGR | 0.7221 ± 0.0064
18 | GGWWWAVGFGGL | 0.66 ± 0.017
19 | GGYGEGAVLFVG | 0.58 ± 0.012
20 | GHAITSALITHR | 0.652 ± 0.024
21 | GHKIIPPSTRFR | 0.626 ± 0.063
22 | GHSRSTFPWLVI | 0.79 ± 0.095
23 | GIAACASSGLAV | 0.657 ± 0.034
24 | GIENTYVVIFID | 0.598 ± 0.068
25 | GIGEGRDGFVVV | 0.67 ± 0.058

Row | Sequence | protein stability index
26 | GIGVVVLGGCTR | 0.706 ± 0.056
27 | GIHLAPVCASSP | 0.71 ± 0.035
28 | GIIQKAQTSIKI | 0.592 ± 0.0067
29 | GIKAIEKGDIHL | 0.699 ± 0.021
30 | GILFFPSGGISP | 0.805 ± 0.12
31 | GILRSDAVWSFI | 0.699 ± 0.042
32 | GILSPSSLVSSL | 0.69 ± 0.057
33 | GITHSFLRSSVV | 0.689 ± 0.054
34 | GITWSYNKSISH | 0.722 ± 0.048
35 | GIVRGCGGGGEE | 0.6922 ± 0.0049
36 | GIVVEELIFCGR | 0.63 ± 0.0087
37 | GIYFARRVVDFG | 0.65 ± 0.011
38 | GKDSSTASNRYT | 0.688 ± 0.027
39 | GKEIHREIIVTV | 0.618 ± 0.014
40 | GKKEGREAGDRG | 0.691 ± 0.092
41 | GKKKKRIDTKYK | 0.713 ± 0.15
42 | GKKRTGRGESAK | 0.693 ± 0.062
43 | GKLQFAEYYNGI | 0.66 ± 0.0081
44 | GKNKYIYKKKRH | 0.792 ± 0.072
45 | GKRKREEDEEKK | 0.686 ± 0.097
46 | GKRRTIQPGQKM | 0.698 ± 0.032
47 | GKSRRQGCDPRR | 0.659 ± 0.035
48 | GKTRLRAKLTYN | 0.62 ± 0.08
49 | GLAASAFAVEEV | 0.711 ± 0.099
50 | GLALSPFPTLSL | 0.64677 ± 0.00031

Row | Sequence | protein stability index
51 | GLARPFVGFPHL | 0.7352 ± 0.0028
52 | GLCGFLLIETLL | 0.64 ± 0.0085
53 | GLDSGVAGRRGV | 0.662 ± 0.0087
54 | GLEFTAFRLRFL | 0.667 ± 0.068
55 | GLERAVGWAVCG | 0.622 ± 0.015
56 | GLERGRLGSGCG | 0.652 ± 0.0075
57 | GLFRESVLGSVW | 0.708 ± 0.013
58 | GLFSGRCLCGGG | 0.688 ± 0.025
59 | GLFSRGKLIALS | 0.571 ± 0.099
60 | GLGATSGGLRCG | 0.654 ± 0.014
61 | GLGAWRGAGRVG | 0.649 ± 0.053
62 | GLGGAWACGGGR | 0.719 ± 0.11
63 | GLGKWGGGGDER | 0.723 ± 0.012
64 | GLGLGGRGMRVV | 0.687 ± 0.018
65 | GLGQGVGGPWAV | 0.678 ± 0.041
66 | GLGQHPSLMSPP | 0.706 ± 0.028
67 | GLIGLVHFWRGT | 0.655 ± 0.035
68 | GLKKRTIILSVK | 0.532 ± 0.0056
69 | GLPFRYASYLFS | 0.704 ± 0.031
70 | GLPLPTPLLPSP | 0.723 ± 0.01
71 | GLPWRRVGGGSG | 0.699 ± 0.048
72 | GLRENIFTDKKN | 0.728 ± 0.06
73 | GLRHCLLHRTCQ | 0.599 ± 0.0079
74 | GLRLFWFRRVRA | 0.537 ± 0.012
75 | GLRSVQISHIRQ | 0.694 ± 0.012

Row | Sequence | protein stability index
76 | GLRYGLALARPF | 0.65 ± 0.034
77 | GLSFITAGGLVF | 0.688 ± 0.052
78 | GLSLSLLSSLFV | 0.71 ± 0.02
79 | GLVDVYWVCIIV | 0.6069 ± 0.0046
80 | GLVLILRLFSRG | 0.494 ± 0.056
81 | GLWSWFLCYEFY | 0.657 ± 0.02
82 | GLYDGSRLVKLE | 0.736 ± 0.039
83 | GMFVCGVGVVGG | 0.704 ± 0.19
84 | GMRGGGRAQDAR | 0.6609 ± 0.002
85 | GMRRGGGGCRGW | 0.716 ± 0.033
86 | GMSRVSDRRWGS | 0.681 ± 0.013
87 | GMWVGGRGVVGV | 0.627 ± 0.0076
88 | GNCGLLSLYTLF | 0.503 ± 0.023
89 | GNCPGYSELGRF | 0.6941 ± 0.0044
90 | GNDICLVGARVV | 0.6696 ± 0.0059
91 | GNFYFSGSGFFI | 0.709 ± 0.031
92 | GNGVNLEYDKRK | 0.721 ± 0.059
93 | GNKKEKYNRTSS | 0.683 ± 0.0078
94 | GNLTPHSERLPP | 0.658 ± 0.0084
95 | GNLVKTLERDKP | 0.736 ± 0.034
96 | GNNLCILNERFP | 0.763 ± 0.019
97 | GPCRVSLSFFFF | 0.577 ± 0.06
98 | GPFHSGSASRSA | 0.653 ± 0.047
99 | GPGAVTALGYGR | 0.668 ± 0.015
100 | GPGLSPPYPSPA | 0.704 ± 0.029

Row | Sequence | protein stability index
101 | GPGSFAPLPPRS | 0.684 ± 0.033
102 | GPLPYISLSFSP | 0.7304 ± 0.0028
103 | GPPPRSPAFRSL | 0.695 ± 0.092
104 | GPPPRYLPAFPA | 0.7057 ± 0.0042
105 | GPPSRPPRRTAP | 0.707 ± 0.14
106 | GPRDPSCLLPPL | 0.653 ± 0.013
107 | GPRRVAVAGETS | 0.715 ± 0.037
108 | GPTPHPVPTTCS | 0.69 ± 0.016
109 | GPVQWSLLGGSW | 0.65 ± 0.012
110 | GPVYPGSRPAFT | 0.708 ± 0.092
111 | GPWGGSGGGGVG | 0.628 ± 0.041
112 | GQMDGGMGGKVI | 0.582 ± 0.062
113 | GQNGFVDGGCVL | 0.677 ± 0.0081
114 | GQQETIGLRAHI | 0.681 ± 0.025
115 | GQQLSLRGVVHW | 0.844 ± 0.2
116 | GQSQSGIFRTIF | 0.72 ± 0.024
117 | GQSVYRRWGCLK | 0.68 ± 0.01
118 | GQVATAGDIRVR | 0.69065 ± 0.00026
119 | GQYEPEWKRLYC | 0.64 ± 0.011
120 | GRADWERGMGLV | 0.664 ± 0.021
121 | GRAGEKRGGRRL | 0.66 ± 0.013
122 | GRANLAPVPPPR | 0.685 ± 0.013
123 | GRASAGVLLCDG | 0.659 ± 0.028
124 | GRCQSPRASPSG | 0.584 ± 0.013
125 | GRDTVARSEGDR | 0.712 ± 0.037

Row | Sequence | protein stability index
126 | GRERASHRGPRN | 0.648 ± 0.0066
127 | GRFGGLLRKVLG | 0.678 ± 0.15
128 | GRFGIGLYLCFL | 0.597 ± 0.094
129 | GRGGAGFRGGIE | 0.6707 ± 0.0044
130 | GRGRVGGGGVAV | 0.682 ± 0.042
131 | GRGTGGKGRRGS | 0.693 ± 0.015
132 | GRGVFPRRPYWV | 0.724 ± 0.0086
133 | GRGVGWRACGVV | 0.685 ± 0.018
134 | GRIAGGGGGWRW | 0.648 ± 0.064
135 | GRILGEGWVCVV | 0.663 ± 0.087
136 | GRKAEVRVLHFR | 0.6447 ± 0.0055
137 | GRKKLQKKIEEQ | 0.6783 ± 0.0032
138 | GRLGRHFSVKFL | 0.6584 ± 0.0052
139 | GRLGRMWRCDPR | 0.658 ± 0.032
140 | GRLWVGGSVGGV | 0.669 ± 0.012
141 | GRPRERWGVGVV | 0.6865 ± 0.0023
142 | GRQLSTSRLRSS | 0.674 ± 0.025
143 | GRRAWWQQPDDS | 0.774 ± 0.099
144 | GRRDARTEDVRE | 0.688 ± 0.0049
145 | GRRFWFSNHYNC | 0.628 ± 0.091
146 | GRRKKKNRDKMK | 0.6872 ± 0.004
147 | GRRLSDTSIFSS | 0.679 ± 0.087
148 | GRRRCGGGGEVC | 0.66 ± 0.064
149 | GRRRVSTAPRTT | 0.739 ± 0.056
150 | GRSFRQWRDSGS | 0.718 ± 0.066

Row | Sequence | protein stability index
151 | GRSGACGWVGFG | 0.7238 ± 0.0013
152 | GRSGGEGGGEEE | 0.681 ± 0.029
153 | GRSHIQPCQDII | 0.75 ± 0.078
154 | GRSIKGLLYQSL | 0.681 ± 0.025
155 | GRSKKGTISMNS | 0.67 ± 0.0077
156 | GRTAEKGHPPRG | 0.7 ± 0.073
157 | GRTGRSVGTGVR | 0.662 ± 0.025
158 | GRTSTVRSLVFT | 0.666 ± 0.026
159 | GRTYWDCYFPRP | 0.778 ± 0.061
160 | GRVRGRGEGPVA | 0.675 ± 0.049
161 | GRWFGGRGVGEG | 0.635 ± 0.013
162 | GRWGVMKGEEDV | 0.737 ± 0.032
163 | GRWSDSSVVTLG | 0.679 ± 0.018
164 | GRYDARNYIRGK | 0.745 ± 0.14
165 | GRYGPTIPRGEP | 0.696 ± 0.017
166 | GSAGGGLLCGCP | 0.657 ± 0.008
167 | GSAVLFEFTLKM | 0.651 ± 0.053
168 | GSDIIGSRDGWL | 0.67 ± 0.039
169 | GSFGFGVTVVFW | 0.5563 ± 0.0021
170 | GSGAFSLVSSYF | 0.656 ± 0.017
171 | GSGALGAGRASR | 0.723 ± 0.017
172 | GSGRVVGSWSVL | 0.661 ± 0.045
173 | GSGVFEASAWGA | 0.679 ± 0.0069
174 | GSGVSDWRCFEG | 0.627 ± 0.071
175 | GSGVVVEGFLPD | 0.65 ± 0.021

Row | Sequence | protein stability index
176 | GSGWRLLLGLVR | 0.5731 ± 0.0022
177 | GSIWVVGGGQGV | 0.731 ± 0.048
178 | GSLWGVFFRGLL | 0.647 ± 0.037
179 | GSMWCLTPSAGL | 0.7 ± 0.034
180 | GSQCPVLEQQRD | 0.655 ± 0.018
181 | GSRALYCIVPRF | 0.661 ± 0.053
182 | GSRVEVGLGVRC | 0.712 ± 0.027
183 | GSSAPSYTIGPE | 0.682 ± 0.017
184 | GSSAVGGGGVWW | 0.819 ± 0.1
185 | GSSVGVAGLRGR | 0.656 ± 0.029
186 | GSSVSSVWGGVG | 0.629 ± 0.022
187 | GSTSWAWITLPH | 0.747 ± 0.0077
188 | GSVGSFIVVVHF | 0.552 ± 0.013
189 | GSVMDMTRGGVS | 0.646 ± 0.097
190 | GSVSLLASLMCS | 0.55596 ± 0.00023
191 | GSWGRPAGFSRR | 0.651 ± 0.028
192 | GSWGVGLGKVHW | 0.752 ± 0.022
193 | GTALLSGGVLVI | 0.689 ± 0.11
194 | GTATINQISSPQ | 0.673 ± 0.028
195 | GTEFIIDIQIFV | 0.547 ± 0.02
196 | GTETFHDASIGI | 0.653 ± 0.016

From the supplement of paper PMC10724198
